Source: patent US20190062705A1 (WAYNE STATE UNIVERSITY, published 2019)

Columns and labels:
[1] = biological target: T1, autoimmune regulator (AIRE), mouse, endogenous in B cells (mouse, UniProt Q9Z0E3 1-552, limits assumed); test: co-IP, mouse splenic B cell lysates
T1 construct: Endogenous protein in mouse splenic B cells and CH12 cells
T1 sequence: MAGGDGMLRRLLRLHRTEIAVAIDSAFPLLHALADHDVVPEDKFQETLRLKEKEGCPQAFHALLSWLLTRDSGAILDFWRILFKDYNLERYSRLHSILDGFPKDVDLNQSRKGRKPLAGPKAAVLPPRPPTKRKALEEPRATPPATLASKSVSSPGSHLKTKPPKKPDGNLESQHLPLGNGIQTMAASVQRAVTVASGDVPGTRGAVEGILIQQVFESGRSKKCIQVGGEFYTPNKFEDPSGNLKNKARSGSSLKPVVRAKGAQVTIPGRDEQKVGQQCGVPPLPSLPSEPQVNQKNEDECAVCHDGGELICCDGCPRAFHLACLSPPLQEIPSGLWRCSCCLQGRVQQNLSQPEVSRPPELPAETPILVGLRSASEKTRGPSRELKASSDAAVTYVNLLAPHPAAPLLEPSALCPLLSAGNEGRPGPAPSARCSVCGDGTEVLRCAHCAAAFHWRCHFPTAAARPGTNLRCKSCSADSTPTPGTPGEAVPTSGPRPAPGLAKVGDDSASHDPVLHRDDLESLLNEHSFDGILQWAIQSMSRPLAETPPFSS

[2] = biological target: T2, Bcl10, endogenous in the human Ramos B cell line (human, UniProt O95999 1-233); test: co-IP in Ramos B cells unstimulated or stimulated with TNF for 24 h
T2 sequence (looked up): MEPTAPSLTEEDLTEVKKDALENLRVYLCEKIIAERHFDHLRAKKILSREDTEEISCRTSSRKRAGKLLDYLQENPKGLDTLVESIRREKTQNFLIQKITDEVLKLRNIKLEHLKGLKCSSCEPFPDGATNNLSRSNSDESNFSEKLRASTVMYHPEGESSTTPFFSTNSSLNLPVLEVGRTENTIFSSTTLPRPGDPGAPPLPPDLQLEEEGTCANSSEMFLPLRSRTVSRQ

B1: activation-induced cytidine deaminase (AID), mouse, endogenous in B cells (enzyme, UniProt Q9WVE0 1-198, looked up)
chain: MDSLLMKQKKFLYHFKNVRWAKGRHETYLCYVVKRRDSATSCSLDFGHLRNKSGCHVELLFLRYISDWDLDPGRCYRVTWFTSWSPCYDCARHVAEFLRWNPNLSLRIFTARLYFCEDRKAEPEGLRRLHRAGVQIGIMTFKDYFYCWNTFVENRERTFKAWEGLHENSVRLTRQLRRILLPLYEVDDLRDAFRMLGF
notes: Endogenous protein in mouse splenic B cells and CH12 cells
[1]
  binding result: binds

B2: activation-induced cytidine deaminase (AID), human, endogenous in B cells (enzyme)
chain: MDSLLMNRRKFLYQFKNVRWAKGRRETYLCYVVKRRDSATSFSLDFGYLRNKNGCHVELLFLRYISDWDLDPGRCYRVTWFTSWSPCYDCARHVADFLRGNPNLSLRIFTARLYFCEDRKAEPEGLRRLHRAGVQIAIMTFKDYFYCWNTFVENHERTFKAWEGLHENSVRLPRQLRRILLPLYEVDDLRDAFRTWGR
notes: Endogenous protein in lysates of human tonsillar B cells and Ramos B cells
[2]
  binding result: no binding
